Among the data in the supplement of paper PMC10567573 are protein stability index values, retold here.

B1: EMD (parent)
chain: YQSKGYNDDYYEESYFTTRTYGEP
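Also: lentivirally expressed fusions sorted by FACS into six bins by GFP to DsRed ratio, PSI derived from sequencing read proportions per bin multiplied by bin number.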

In the series the parent is B1. Description: protein stability index of a GFP-peptide fusion (GPS, HEK-293T) (PSI 1-6); higher = more stable. The following applies: c terminus: a fixed tail appended.
As for YQSKGYNDDYYDESYFTTRTYGEP [E12D], the protein stability index was 2.57.
In the case of YQSKGYNDDYYGESYFTTRTYGEP [E12G] it was 1.84; in that of YQSKGYNDDYYCESYFTTRTYGEP [E12C], 1.75; in that of YQSKGYNDDYYFESYFTTRTYGEP [E12F], 2.11.
With YQSKGYNDDYYIESYFTTRTYGEP [E12I] the figure was 2.38.
With YQSKGYNDDYYQESYFTTRTYGEP [E12Q] the figure was 1.86; with YQSKGYNDDYYPESYFTTRTYGEP [E12P], 2.12; with YQSKGYNDDYYRESYFTTRTYGEP [E12R], 1.73.
Regarding YQSKGYNDDYYNESYFTTRTYGEP [E12N], the protein stability index was 1.95.
In the case of YQSKGYNDDYYTESYFTTRTYGEP [E12T], the protein stability index was 2.2.
In the case of YQSKGYNDDYYVESYFTTRTYGEP [E12V] it was 1.71; in that of YQSKGYNDDYYWESYFTTRTYGEP [E12W], 2.19; in that of YQSKGYNDDYYHESYFTTRTYGEP [E12H], 1.52.
As for YQSKGYNDDYYMESYFTTRTYGEP [E12M], the protein stability index worked out at 2.26.
In the case of YQSKGYNDDYYYESYFTTRTYGEP [E12Y] it was 1.79; in that of YQSKGYNDDYYSESYFTTRTYGEP [E12S], 2.33; in that of YQSKGYNDDYYLESYFTTRTYGEP [E12L], 2.14.
With YQSKGYNDDYYKESYFTTRTYGEP [E12K] the figure was 2.33; with YQSKGYNDDYYAESYFTTRTYGEP [E12A], 2.19; with YQSKGYNDDYYEESYFTTLTYGEP [R19L], 2.21.
Consider YQSKGYNDDYYEESYFTTSTYGEP [R19S], for which the protein stability index was 2.53.
In the case of YQSKGYNDDYYEESYFTTWTYGEP [R19W] it was 2.03; in that of YQSKGYNDDYYEESYFTTCTYGEP [R19C], 2.08; in that of YQSKGYNDDYYEESYFTTGTYGEP [R19G], 3.07.
With YQSKGYNDDYYEESYFTTPTYGEP [R19P] the figure was 2.53; with YQSKGYNDDYYEESYFTTATYGEP [R19A], 2.29; with YQSKGYNDDYYEESYFTTETYGEP [R19E], 3.12.
In the case of YQSKGYNDDYYEESYFTTDTYGEP [R19D] it was 3.08; in that of YQSKGYNDDYYEESYFTTQTYGEP [R19Q], 2.88.
With YQSKGYNDDYYEESYFTTKTYGEP [R19K], the protein stability index was 2.46.
In the case of YQSKGYNDDYYEESYFTTMTYGEP [R19M] it was 2.35; in that of YQSKGYNDDYYEESYFTTTTYGEP [R19T], 2.81; in that of YQSKGYNDDYYEESYFTTITYGEP [R19I], 2.09.
As for YQSKGYNDDYYEESYFTTHTYGEP [R19H], the protein stability index stood at 2.5.
With YQSKGYNDDYYEESYFTTVTYGEP [R19V] the figure was 2.26.
With YQSKGYNDDYYEESYFTTFTYGEP [R19F] the figure was 2.11.
With YQSKGYNDDYYEESYFTTNTYGEP [R19N] the figure was 2.87; with YQSKGYNDDYYEESYFTYRTYGEP [T18Y], 1.76.
On to YQSKGYNDDYYEESYFTPRTYGEP [T18P], for which the protein stability index turned out to be 1.88.
With YQSKGYNDDYYEESYFTSRTYGEP [T18S] the figure was 2.38.
With YQSKGYNDDYYEESYFTQRTYGEP [T18Q] the figure was 2.3.
With YQSKGYNDDYYEESYFTGRTYGEP [T18G] the figure was 2.09; with YQSKGYNDDYYEESYFTARTYGEP [T18A], 2.31; with YQSKGYNDDYYEESYFTFRTYGEP [T18F], 1.39.
In the case of YQSKGYNDDYYEESYFTMRTYGEP [T18M], the protein stability index is 2.04.
With YQSKGYNDDYYEESYFTVRTYGEP [T18V] the figure was 1.95; with YQSKGYNDDYYEESYFTRRTYGEP [T18R], 2.79; with YQSKGYNDDYYEESYFTWRTYGEP [T18W], 2.02.
Regarding YQSKGYNDDYYEESYFTIRTYGEP [T18I], the protein stability index was 1.77.
With YQSKGYNDDYYEESYFTHRTYGEP [T18H] the figure was 2.17; with YQSKGYNDDYYEESYFTCRTYGEP [T18C], 2.08.
With YQSKGYNDDYYEESYFTKRTYGEP [T18K] the figure was 2.65; with YQSKGYNDDYYEESYFTLRTYGEP [T18L], 2.11.
In the case of YQSKGYNDDYYEESYFTDRTYGEP [T18D] it was 2.46.
Take YQSKGYNDDYYEESYFTERTYGEP [T18E]: the protein stability index is 2.44.
Take YQSKGYNDDYYEESYFTNRTYGEP [T18N]: the protein stability index is 2.5.
With YQSKGYNDDYYEESAFTTRTYGEP [Y15A] the figure was 2.92.
With YQSKGYNDDYYEESVFTTRTYGEP [Y15V] the figure was 2.62; with YQSKGYNDDYYEESPFTTRTYGEP [Y15P], 2.35.
For YQSKGYNDDYYEESRFTTRTYGEP [Y15R], the protein stability index is 2.75.
As for YQSKGYNDDYYEESTFTTRTYGEP [Y15T], the protein stability index amounted to 2.8.
YQSKGYNDDYYEESHFTTRTYGEP [Y15H]: the protein stability index was 2.9.
Take YQSKGYNDDYYEESIFTTRTYGEP [Y15I]: the protein stability index came to 2.11.
In the case of YQSKGYNDDYYEESLFTTRTYGEP [Y15L] it was 2; in that of YQSKGYNDDYYEESDFTTRTYGEP [Y15D], 3.64.
Consider YQSKGYNDDYYEESKFTTRTYGEP [Y15K], for which the protein stability index is 2.63.
With YQSKGYNDDYYEESCFTTRTYGEP [Y15C] the figure was 2.37; with YQSKGYNDDYYEESNFTTRTYGEP [Y15N], 3.06; with YQSKGYNDDYYEESEFTTRTYGEP [Y15E], 3.41.
With YQSKGYNDDYYEESGFTTRTYGEP [Y15G] the figure was 2.96.
With YQSKGYNDDYYEESMFTTRTYGEP [Y15M] the figure was 2.42; with YQSKGYNDDYYEESQFTTRTYGEP [Y15Q], 2.91; with YQSKGYNDDYYEESSFTTRTYGEP [Y15S], 2.96.
YQSKGYNDDYYEESFFTTRTYGEP [Y15F]: the protein stability index was determined as 1.69.
In the case of YQSKGYNDDYYEESWFTTRTYGEP [Y15W] it was 2.24; in that of YQSKGYNDDYDEESYFTTRTYGEP [Y11D], 3.29; in that of YQSKGYNDDYVEESYFTTRTYGEP [Y11V], 2.34.
As to YQSKGYNDDYNEESYFTTRTYGEP [Y11N], the protein stability index is 2.98.
With YQSKGYNDDYFEESYFTTRTYGEP [Y11F] the figure was 1.68; with YQSKGYNDDYGEESYFTTRTYGEP [Y11G], 2.84; with YQSKGYNDDYCEESYFTTRTYGEP [Y11C], 2.36.
Take YQSKGYNDDYQEESYFTTRTYGEP [Y11Q]: the protein stability index is 2.8.
With YQSKGYNDDYMEESYFTTRTYGEP [Y11M] the figure was 2.51; with YQSKGYNDDYKEESYFTTRTYGEP [Y11K], 2.19; with YQSKGYNDDYREESYFTTRTYGEP [Y11R], 2.66.
In the case of YQSKGYNDDYTEESYFTTRTYGEP [Y11T] it was 2.94.
In the case of YQSKGYNDDYPEESYFTTRTYGEP [Y11P] it was 2.19; in that of YQSKGYNDDYLEESYFTTRTYGEP [Y11L], 2.38; in that of YQSKGYNDDYSEESYFTTRTYGEP [Y11S], 2.8.
On to YQSKGYNDDYAEESYFTTRTYGEP [Y11A], for which the protein stability index came to 2.97.
For YQSKGYNDDYWEESYFTTRTYGEP [Y11W], the protein stability index was found to be 1.87.
In the case of YQSKGYNDDYHEESYFTTRTYGEP [Y11H] it was 2.6.
With YQSKGYNDDYEEESYFTTRTYGEP [Y11E] the figure was 3.16; with YQSKGYNDDYIEESYFTTRTYGEP [Y11I], 2.19.
